Earlier results, collected in article PMC3521240.

Target: PTX3 (Homo sapiens) (UniProt P26022)
Sequence (P26022 18-381): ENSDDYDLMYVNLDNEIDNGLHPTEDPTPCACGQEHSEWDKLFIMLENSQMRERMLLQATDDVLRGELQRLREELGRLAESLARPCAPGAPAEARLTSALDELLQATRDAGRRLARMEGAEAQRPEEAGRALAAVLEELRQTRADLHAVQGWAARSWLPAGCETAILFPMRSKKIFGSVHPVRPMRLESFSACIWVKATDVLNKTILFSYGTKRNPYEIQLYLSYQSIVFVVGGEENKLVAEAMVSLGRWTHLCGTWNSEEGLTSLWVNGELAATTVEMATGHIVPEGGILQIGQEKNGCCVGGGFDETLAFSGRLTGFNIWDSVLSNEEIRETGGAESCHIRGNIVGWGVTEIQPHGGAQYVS

Chain of AZU1 (P20160 27-248): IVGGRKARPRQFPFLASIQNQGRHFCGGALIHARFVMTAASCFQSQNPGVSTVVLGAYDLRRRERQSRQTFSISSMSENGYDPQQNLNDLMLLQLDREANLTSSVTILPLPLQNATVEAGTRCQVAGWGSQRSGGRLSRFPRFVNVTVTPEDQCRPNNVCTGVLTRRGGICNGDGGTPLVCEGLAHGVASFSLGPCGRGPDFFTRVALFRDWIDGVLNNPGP

Kd: 22 nM
Substance: AZU1 (from UniProt P20160)
